Key:
Assay in all cases: two-hybrid library CCmax;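 also: natural log of median RNA to DNA barcode read ratio; higher means stronger binding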
4H2729-AA = target: T1, 4H2729-AA; settings: mean of both orientations
T1 chain: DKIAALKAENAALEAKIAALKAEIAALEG

4H2944-AA = target: T2, 4H2944-AA; settings: mean of both orientations
T2 chain: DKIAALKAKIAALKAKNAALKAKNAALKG

4H2754-AA = target: T3, 4H2754-AA; settings: mean of both orientations
T3 chain: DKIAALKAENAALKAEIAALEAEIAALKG

4H881-AA = target: T4, 4H881-AA; settings: mean of both orientations
T4 chain: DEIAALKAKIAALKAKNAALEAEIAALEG

4H3627-AA = target: T5, 4H3627-AA; settings: mean of both orientations
T5 chain: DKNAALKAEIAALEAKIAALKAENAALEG

4H317-AA = target: T6, 4H317-AA; settings: mean of both orientations
T6 chain: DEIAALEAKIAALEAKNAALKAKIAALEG

4H335-AA = target: T7, 4H335-AA; settings: mean of both orientations
T7 chain: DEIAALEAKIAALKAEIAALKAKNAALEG

4H2949-AA = target: T8, 4H2949-AA; settings: mean of both orientations
T8 chain: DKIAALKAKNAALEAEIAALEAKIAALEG

4H2393-AA = target: T9, 4H2393-AA
T9 chain: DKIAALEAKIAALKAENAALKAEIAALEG

4H234-AA = target: T10, 4H234-AA; settings: mean of both orientations
T10 chain: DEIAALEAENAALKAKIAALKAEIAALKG

4H2617-AA = target: T11, 4H2617-AA; settings: mean of both orientations
T11 chain: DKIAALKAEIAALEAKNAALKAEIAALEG

4H454-AA = target: T12, 4H454-AA; settings: mean of both orientations
T12 chain: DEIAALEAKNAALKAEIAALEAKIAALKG

4H794-AA = target: T13, 4H794-AA; settings: mean of both orientations
T13 chain: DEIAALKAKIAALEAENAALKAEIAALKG

4H2354-AA = target: T14, 4H2354-AA; settings: mean of both orientations
T14 chain: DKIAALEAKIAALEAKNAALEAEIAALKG

4H566-AA = target: T15, 4H566-AA; settings: mean of both orientations
T15 chain: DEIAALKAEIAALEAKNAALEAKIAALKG

4H3606-AA = target: T16, 4H3606-AA; settings: mean of both orientations
T16 chain: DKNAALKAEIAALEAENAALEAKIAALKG

4H3343-AA = target: T17, 4H3343-AA; settings: mean of both orientations
T17 chain: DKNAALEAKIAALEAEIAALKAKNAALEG

4H605-AA = target: T18, 4H605-AA; settings: mean of both orientations
T18 chain: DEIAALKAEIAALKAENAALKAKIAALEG

4H2277-AA = target: T19, 4H2277-AA
T19 chain: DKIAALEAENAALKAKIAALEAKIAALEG

4H48-AA = target: T20, 4H48-AA; settings: mean of both orientations
T20 chain: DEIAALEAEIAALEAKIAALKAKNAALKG

4H3921-AA = target: T21, 4H3921-AA; settings: mean of both orientations
T21 chain: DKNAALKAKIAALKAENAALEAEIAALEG

4H429-AA = target: T22, 4H429-AA; settings: mean of both orientations
T22 chain: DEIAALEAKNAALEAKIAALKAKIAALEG

4H2466-AA = target: T23, 4H2466-AA; settings: mean of both orientations
T23 chain: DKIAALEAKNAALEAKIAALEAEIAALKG

4H717-AA = target: T24, 4H717-AA; settings: mean of both orientations
T24 chain: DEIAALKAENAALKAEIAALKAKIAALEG

4H2883-AA = target: T25, 4H2883-AA; settings: mean of both orientations
T25 chain: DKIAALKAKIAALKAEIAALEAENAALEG

4H2575-AA = target: T26, 4H2575-AA; settings: mean of both orientations
T26 chain: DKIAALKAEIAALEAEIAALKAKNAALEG

4H906-AA = target: T27, 4H906-AA; settings: mean of both orientations
T27 chain: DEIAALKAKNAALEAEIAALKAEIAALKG

4H2642-AA = target: T28, 4H2642-AA; settings: mean of both orientations
T28 chain: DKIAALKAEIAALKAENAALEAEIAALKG

4H3427-AA = target: T29, 4H3427-AA; settings: mean of both orientations
T29 chain: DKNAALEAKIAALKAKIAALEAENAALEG

4H2505-AA = target: T30, 4H2505-AA; settings: mean of both orientations
T30 chain: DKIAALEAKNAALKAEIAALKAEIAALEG

4H3655-AA = target: T31, 4H3655-AA; settings: mean of both orientations
T31 chain: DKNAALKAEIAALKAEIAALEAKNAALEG

4H3112-AA = target: T32, 4H3112-AA; settings: mean of both orientations
T32 chain: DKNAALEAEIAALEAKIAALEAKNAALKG

4H342-AA = target: T33, 4H342-AA; settings: mean of both orientations
T33 chain: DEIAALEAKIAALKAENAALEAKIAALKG

4H3844-AA = target: T34, 4H3844-AA; settings: mean of both orientations
T34 chain: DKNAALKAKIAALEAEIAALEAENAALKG

4H2837-AA = target: T35, 4H2837-AA; settings: mean of both orientations
T35 chain: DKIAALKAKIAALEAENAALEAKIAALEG

4H678-AA = target: T36, 4H678-AA; settings: mean of both orientations
T36 chain: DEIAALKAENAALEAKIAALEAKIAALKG

4H780-AA = target: T37, 4H780-AA
T37 chain: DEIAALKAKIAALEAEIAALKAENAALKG

4H993-AA = target: T38, 4H993-AA; settings: mean of both orientations
T38 chain: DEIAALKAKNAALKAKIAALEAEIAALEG

interaction score (4H2729-AA): 0.856 | interaction score (4H2944-AA): -1.56 | interaction score (4H2754-AA): 0.512 | interaction score (4H881-AA): -1.05 | interaction score (4H3627-AA): -1.28 | interaction score (4H317-AA): -1.02 | interaction score (4H335-AA): -1.2 | interaction score (4H2949-AA): 0.749 | interaction score (4H2393-AA): -1.39 | interaction score (4H234-AA): -0.0407 | interaction score (4H2617-AA): -1.68 | interaction score (4H454-AA): 1.29 | interaction score (4H794-AA): -1.24 | interaction score (4H2354-AA): -1.26 | interaction score (4H566-AA): -0.827 | interaction score (4H3606-AA): -1.85 | interaction score (4H3343-AA): -1.26 | interaction score (4H605-AA): -1.38 | interaction score (4H2277-AA): 1.95 | interaction score (4H48-AA): -1.36 | interaction score (4H3921-AA): -1.56 | interaction score (4H429-AA): -0.713 | interaction score (4H2466-AA): -1.07 | interaction score (4H717-AA): -0.927 | interaction score (4H2883-AA): -1.6 | interaction score (4H2575-AA): -1.59 | interaction score (4H906-AA): -1.51 | interaction score (4H2642-AA): -0.59 | interaction score (4H3427-AA): -1.51 | interaction score (4H2505-AA): -0.635 | interaction score (4H3655-AA): -1.32 | interaction score (4H3112-AA): -1.43 | interaction score (4H342-AA): -0.907 | interaction score (4H3844-AA): -1.39 | interaction score (4H2837-AA): -1.08 | interaction score (4H678-AA): 0.351 | interaction score (4H780-AA): -1.36 | interaction score (4H993-AA): 0.398
Binder: DKIAALEAENAALKAKIAALEAKIAALEG [4H2277-AA]
